In patent US20140127139A1 (GUERBET, published 2014):
No end group written: not given here.

Experiments:
MUC2 glycoprotein = target: T1, MUC2 glycoprotein (human, UniProt Q02817 21-5289, limits assumed, O-glycosylated mucin); assay: histological labelling of human colonic adenoma sections with biotinylated peptide, compared with anti-MUC2 antibody labelling
T1 construct: Present in situ in fixed, paraffin-embedded tissue sections; also called major mucin of the intestine
Protocol: Sections of healthy gastric and colonic mucosae and of human colorectal adenoma (5 μm thick) were fixed for 24 h with 4% paraformaldehyde and embedded in paraffin. For the labeling, the sections were first of all deparaffinized in toluene and rehydrateted in 95% alcohol. After rinsing in water, the slides are brought to boiling for 10 minutes in a citrate buffer (50 mM, pH 4). Once the temperature of the buffer has returned to 25-30° C., the slides are then rinsed with PBS and then successively incubated for 15 minutes in a 0.15% hydrogen peroxide (H₂O₂) solution and a kit for blocking the endogenous biotin for 1 h. The sections are then blocked using a milk-enriched buffer for 1 h at ambient temperature, and are then incubated at 4° C. for 18 h with the peptides at various concentrations (20 μM, 10 μM, 1 μM, 0.2 μM, 0.04 μM) or the antibodies (MUC5AC: PM8 at a 1/100 dilution and MUC2: Lum2-3 at a 1/100 dilution) diluted in PBS. The biotinylated peptides bound to the target are visualized using goat anti-biotin antibodies incubated for one hour at ambient temperature and then diluted in PBS at 1 μg/ml. A second incubation for one hour at ambient temperature is carried out in the presence of peroxidase-labeled anti-goat antibodies at 0.2 μg/ml diluted in PBS supplemented with 0.1% of Tween-20. […]

[1] = target: T2, rat MUC5AC glycoprotein purified from rat stomach (rat); assay: ELISA; MUC5AC purified from rat stomach immobilized, biotinylated peptide; apparent Kd
T2 construct: Native glycoprotein purified from tissue; also called murine (rat) gastric MUC5AC
Protocol: (§1) The interaction between the peptide and MUC5AC is evaluated by means of an ELISA assay. The mucin MUC5AC (purified from pieces of human tumor on the basis of mucin extraction and purification protocols described in literature) is immobilized on a plate at the concentration of 12.5 μg/ml overnight at 4° C. The nonspecific sites are then saturated in a buffer enriched with milk, for 2 hours at 4° C. After several rinses, the peptide […] coupled to biotin is incubated at increasing concentrations (10⁻³M and 10⁻⁶M) for 2 hours at 37° C. The biotinylated peptides bound to MUC5AC are visualized using goat anti-biotin antibodies incubated for one hour at ambient temperature and then diluted in PBS at 1 μg/ml. After removal of the unbound antibodies, a second incubation for one hour at ambient temperature is carried out in the presence of peroxidase-labeled anti-goat antibodies at 0.2 μg/ml, diluted in PBS supplemented with 0.1% of Tween-20. The peroxidase coloration reaction is carried out in the presence of H₂O₂-enriched ABTS. The measurement of the OD at 405 nm makes it possible to calculate the K*d MUC5AC value.
(§2) The interaction between the peptide and MUC5AC is also evaluated by means of the previously described ELISA assay on the mucin MUC5AC purified beforehand from mouse and rat stomach.

[2] = target: T3, human MUC5AC mucin purified from pieces of human tumor (human, UniProt P98088 28-5654, limits assumed, O-glycosylated mucin); assay: ELISA; purified human MUC5AC immobilized, biotinylated peptide at increasing concentrations, OD 405 nm; apparent Kd
T3 construct: Native glycoprotein purified from tissue and immobilized on an ELISA plate at 12.5 ug/ml; Also used here as the target for labelling of human tissue sections (MUC5AC in situ); also called human colonic MUC5AC; purified MUC5AC
Protocol: as §1

[3] = target: T4, native MUC5AC secreted by HT29-5M21 human colonic adenocarcinoma cells (human, UniProt P98088 28-5654, O-glycosylated mucin); assay: cell ELISA on HT29 5M21 cells secreting MUC5AC, biotinylated peptide, OD 405 nm; apparent Kd
T4 construct: whole, on cells; A secreted mucin on the cell layer, not a membrane protein; also called MUC5AC cells; MUC5AC directly after secretion on secretory human adenocarcinoma cells
Protocol: The affinity of the peptide for MUC5AC is calculated from a functional cell assay which consists in measuring the binding of the peptide on a cell model secreting MUC5AC. After 21 days of culture for HT29-5M21 cells and 7 days for HCT116 cells, the cells are rinsed with PBS at 4° C., and then fixed with 1% glutaraldehyde diluted in PBS. The cells are then rinsed again 3 times with PBS at 4° C. and incubated for 2H at ambient temperature with a milk-enriched buffer and for 2H at 37° C. in a concentration range of between 10⁻³M and 10⁻⁶M of biotinylated peptides. The biotinylated peptides bound to the target are visualized using goat anti-biotin antibodies incubated for one hour at ambient temperature (diluted in PBS to 1 μg/ml). A second incubation for one hour at ambient temperature is carried out in the presence of peroxidase-labeled anti-goat antibodies at 0.2 μg/ml, diluted in PBS supplemented with 0.1% of Tween-20. The peroxidase coloration reaction is carried out in the presence of ABTS and the OD measurement is carried out at 405 nm. The cell assay has the advantage of showing affinity data, although its sensitivity can still be improved. The secretion of MUC5AC was indeed verified in the study. The results on human tissues (affinity curve for human MUC5AC also obtained) give very positive results. […]

[4] = target: T5, mouse MUC5AC glycoprotein purified from mouse stomach (mouse); assay: ELISA; MUC5AC purified from mouse stomach immobilized, biotinylated peptide; apparent Kd
T5 construct: Native glycoprotein purified from tissue; Also used here as the target for the in vivo mouse stomach signal (MUC5AC in situ); also called murine (mouse) gastric MUC5AC
Protocol: as §1, §2

B1: peptide CPSIYPLLC (SEQ ID No. 2) coupled to biotin (peptide)
peptide: CPSIYPLLC
modifications: also: biotin coupled, site not given here, cyclic, closure type not given here
notes: The chemistry of the biotin coupling is not described; also called Cyclic C60
binding result (MUC2 glycoprotein): no binding
Kd [1]: 659 µM
Kd [2]: 85 µM
Kd [3]: 48 µM
Kd [4]: 549 µM
